Experimental data taken from article PMC5397172.

Assays:
Assay in all cases: EMSA
Flag-p50 (homodimer) = Flag-p50 (homodimer) (UniProt P19838 1-433)
Flag-p65 (homodimer) = Flag-p65 (homodimer) (UniProt Q04206 1-551)
HA-p65;Flag-p50 = HA-p65;Flag-p50 (human?;human?, UniProt Q04206;P19838 1-551;1-433, |)

Measured: binding result

Flag-p50 (homodimer), sequence (P19838 1-433): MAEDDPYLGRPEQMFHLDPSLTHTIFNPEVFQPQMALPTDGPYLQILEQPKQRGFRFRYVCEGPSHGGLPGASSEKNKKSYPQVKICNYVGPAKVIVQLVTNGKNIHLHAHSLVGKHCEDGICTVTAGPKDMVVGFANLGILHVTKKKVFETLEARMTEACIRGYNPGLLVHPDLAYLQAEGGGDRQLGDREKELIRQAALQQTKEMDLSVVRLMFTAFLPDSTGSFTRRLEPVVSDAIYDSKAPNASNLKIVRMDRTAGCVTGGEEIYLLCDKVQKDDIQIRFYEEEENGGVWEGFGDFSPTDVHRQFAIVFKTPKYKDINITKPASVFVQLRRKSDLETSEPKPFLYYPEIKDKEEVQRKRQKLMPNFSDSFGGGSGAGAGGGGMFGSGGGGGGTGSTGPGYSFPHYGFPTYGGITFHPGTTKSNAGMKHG
Flag-p65 (homodimer), sequence (Q04206 whole entry): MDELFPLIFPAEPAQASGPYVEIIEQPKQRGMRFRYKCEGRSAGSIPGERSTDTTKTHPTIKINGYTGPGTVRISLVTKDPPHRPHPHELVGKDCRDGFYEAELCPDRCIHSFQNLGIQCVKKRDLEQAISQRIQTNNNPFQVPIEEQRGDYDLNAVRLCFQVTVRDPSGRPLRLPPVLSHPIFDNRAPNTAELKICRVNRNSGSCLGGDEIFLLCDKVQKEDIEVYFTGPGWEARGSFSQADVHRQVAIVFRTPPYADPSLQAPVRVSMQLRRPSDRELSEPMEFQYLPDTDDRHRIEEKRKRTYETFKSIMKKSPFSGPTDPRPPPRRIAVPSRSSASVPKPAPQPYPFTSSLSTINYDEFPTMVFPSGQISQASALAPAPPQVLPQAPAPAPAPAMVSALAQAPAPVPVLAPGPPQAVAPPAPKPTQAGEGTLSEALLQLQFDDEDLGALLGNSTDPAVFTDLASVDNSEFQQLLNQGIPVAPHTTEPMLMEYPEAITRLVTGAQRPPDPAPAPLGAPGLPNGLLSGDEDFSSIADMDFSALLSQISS
HA-p65;Flag-p50, sequence (Q04206 whole entry, chain 1 of 2): as the sequence (Q04206 whole entry) above
HA-p65;Flag-p50, sequence (P19838 1-433, chain 2 of 2): as the sequence (P19838 1-433) above

B1: Ig kappaB mutant (dsDNA)
DNA 1: AGTTGAATCCACTTTCCCAGG
DNA 2: CCTGGGAAAGTGGATTCAACT
no binding: all assays above
